The text below walks through data of article PMC9672302, “H2A.Z deposition by SWR1C involves multiple ATP-dependent steps” (Nature Communications, 2022).

Data set [1] relates to SWR1C (SWR1 complex) (Saccharomyces cerevisiae (FLAG-tagged Swr1 strain)). The data set can be described thus: fluorescence polarization. The following applies: FP: 25 mM HEPES-KOH pH 7.6, 70 mM KCl, 0.2 mM EDTA, 5 mM MgCl2, 1 mM DTT, 0.1 mg/mL BSA, 10 nM nucleosome, 1 mM nucleotide where added, 20 min, room ….
In data set [2] the target is T1, SWR1C (Saccharomyces cerevisiae, UniProt Q05471).
T1 construct: gene SWR1; native multi-subunit remodeler complex purified from a yeast strain with FLAG-tagged Swr1, eluted with 3x FLAG peptide; tag kept; with SWR1-complex protein 5; SWR1-complex protein 3; Vacuolar protein sorting-associated protein 71; Actin-like protein ARP6; Vacuolar protein sorting-associated protein 72; SWR1-complex protein 4; SWR1-complex protein 7; Protein AF-9 homolog; Bromodomain-containing factor 1; Actin-related protein 4; Actin; RuvB-like protein 1; RuvB-like protein 2
The data set can be described thus: fluorescence polarization of SWR1C binding to labelled H2A nucleosome with added nucleotide (no constant for the nucleotide). The following applies: 1 mM ADP, 10 nM 77N4-ATTO 647N nucleosome, 5 mM MgCl2, pH 7.6, room temperature; indirect, nucleotide modulates nucleosome affinity.

Data set [3] has as its target T1, SWR1C. The data set can be described thus: single-molecule FRET of H2A/H2B eviction from immobilised nucleosomes. The following applies: co-substrates yeast/Xenopus hybrid nucleosome 117N4, H2A.Z/H2B dimer, chaperone Chz1; 0-100 uM ATP; 4 mM MgCl2, pH 7.6, room temperature. The data set is classed as biochemical.
Data set [4] concerns the target SWR1C-nucleosome (SWR1C bound to the tethered biotinTEG-117N4-ATTO 647N H2A nucleosome) (S. cerevisiae | not stated (X. laevis H3.1 or H. sapiens H3.2 C110A made) | X. laevis | yeast (endogenous in the FLAG-tagged Swr1 yeast strain)) (UniProt P04911). The data set can be described thus: single-molecule fluorescence colocalisation (TIRF, smFRET set-up); biotinTEG-117N4-ATTO 647N nucleosomes incubated with 25 nM SWR1C and tethered on a streptavidin-coated slide; 50 nM Cy3B-labeled H2A.Z-H2B dimer, 50 nM Chz1, 200 uM ATP, 10 nM 77N0 nucleosome in solution; room temperature; 5 min of acquisition.

For data set [5], the target named is H2A.Z nucleosomal product with SWR1C (tethered biotinTEG-117N4-ATTO 647N nucleosome after dimer exchange) (S. cerevisiae | not stated (X. laevis H3.1 or H. sapiens H3.2 C110A made) | X. laevis | yeast (endogenous in the FLAG-tagged Swr1 yeast strain)) (UniProt Q12692). The data set can be described thus: single-molecule fluorescence colocalisation (TIRF, smFRET set-up); as a6 but with 100 uM ATP.

The target is the same in data set [6]. The data set can be described thus: single-molecule fluorescence colocalisation (TIRF, smFRET set-up); tethered biotinTEG-117N4-ATTO 647N, Cy3B-labeled H2A nucleosome with 30 nM SWR1C, 70 nM H2A.Z-H2B dimer, 70 nM Chz1; 0.5 uM ATP; time from the end of eviction (loss of FRET) to the loss of the Cy3B signal, Kaplan-Meier half-life; room temperature.
Data set [7] has as its target H2A nucleosome (77N4-ATTO 647N nucleosome) (S. cerevisiae | not stated (X. laevis H3.1 or H. sapiens H3.2 C110A made) | X. laevis) (UniProt P04911). The data set can be described thus: fluorescence polarisation; as a1 but with 1 mM ADP; apparent Kd.
Data set [8] shares this target. The data set can be described thus: fluorescence polarisation; as a1 but with 1 mM AMP-PNP; apparent Kd.
The target is the same in data set [9]. The data set can be described thus: fluorescence polarisation; as a1 but with 1 mM ATP; apparent Kd.
The target in data set [10] is H2A.Z nucleosome (77N4-ATTO 647N nucleosome) (S. cerevisiae | not stated (X. laevis H3.1 or H. sapiens H3.2 C110A made) | X. laevis) (UniProt Q12692). The data set can be described thus: fluorescence polarisation; 0-250 nM SWR1C titrated to 10 nM 77N4-ATTO 647N nucleosome, no nucleotide; 25 mM HEPES-KOH pH 7.6, 70 mM KCl, 0.2 mM EDTA, 5 mM MgCl2, 1 mM DTT, 0.1 mg/mL BSA; 20 min, room temperature; quadratic binding equation, global fit; apparent Kd.

Data set [11] addresses H2A nucleosome (77N4-ATTO 647N nucleosome) (S. cerevisiae | not stated (X. laevis H3.1 or H. sapiens H3.2 C110A made) | X. laevis) (UniProt P04911). Described as above.

pKd: −log10 of the molar value.

As for 77N4 H2A nucleosome (ATTO 647N), the pKd in data set [1] (1 mM ADP) is 7.68; in data set [1] (1 mM AMP-PNP) it was 7.85; in data set [1] (1 mM ATP), 7.51; in [1] (no nucleotide (apo), 5 replicates), 7.92.
In data set [1] (no nucleotide (apo)), 77N4 H2A.Z nucleosome (ATTO 647N) gave a pKd of 7.60.
On to `Nc1ncnc2c1ncn2[C@@H]1O[C@H](COP(=O)(O)OP(=O)(O)O)[C@@H](O)[C@H]1O` [ADP], for which, in [2], the “fluorescence polarization of SWR1C binding to labelled H2A nucleosome with added” value was “a decrease in binding was also observed with ADP”.
For `Nc1ncnc2c1ncn2[C@@H]1O[C@H](COP(=O)(O)OP(=O)(O)OP(=O)(O)O)[C@@H](O)[C@H]1O` [ATP], the “single-molecule FRET of H2A/H2B eviction from immobilised nucleosomes” value in data set [3] is given as “Priming is ATP-sensitive, as the duration of the priming phase (tprime) decreased with increasing ATP concentration”.
In data set [4], “Cy3B-H2A.Z/H2B dimer (from UniProt P02293 5-131) (complex)” gave a mean lifetime of the bound state of 34 s, a percent of nucleosomes bound within 10 s of 50% and a percent of nucleosomes that bound at least one dimer in 5 min of 89%.
Consider “Cy3B-labeled H2A/H2B dimer (from UniProt P02293 5-131) (complex)”, for which the half-life of release (t release) was found to be 1.6 min in [5] and 3.65 min in [6].
In the case of “SWR1C (from UniProt Q05471 1-1514; P38326 1-303; Q12509 1-438; Q03433 1-280; P31376 1-625) (complex)”, the negative-log Kd (pKd) in [7] was 7.68; in data set [8] it was 7.85; in data set [9] it was 7.51; in data set [10], 7.60; in data set [11] it was 7.92.
